The results in this text go back to US7429563B2, “Peptide carrier for drug delivery” (The Board of Trustees of the University of Illinois, priority 2004, dated 2008).

For data set [1], the target named is T1, HSA (Homo sapiens, UniProt P02768).
T1 construct: purchased Sigma (St. Louis, Mo.)
Put plainly: 125I-HSA binding to MPO peptides immobilized on nitrocellulose (dot-blot). To be noted: immobilized peptide. How it is done: ^125I-labeling and binding of proteins: HSA and MPO were labeled with ^125I using IODO-GEN reagent from Pierce (Rockford, Ill.). ^125I HSA binding to the MPO peptides was determined by dot-blot analysis. Peptides were immobilized on nitrocellulose membranes and non-specific binding was blocked with bovine γ-globulin (2 mg/ml in PBS) for 1 h at 22° C. Membranes were washed 2× with PBS and incubated with ^125I-labeled HSA (0.3 pM) for 2 h at 22° C. Membranes were then washed 4× with PBS containing 0.05% Tween-20 (PBST) and autoradiography was performed. In some experiments, the membranes were directly counted to determine the membrane-associated radioactivity.
Peptides were immobilized on nitrocellulose membranes and then incubated with 1 ml of 0.3 μM ^125I-HSA in PBS for 2 h. Other details were described in Example 1. Non-specific binding was determined by incubating membranes with ^125I-HSA in the absence of any peptides. Results are shown mean±S.E. for three separate experiments made in triplicate.

Data set [2] deals with albumin. Put plainly: Albumin binding of ELKSLNPRWDGE, albumin from a variety of sources. To be noted: e.g., human, porcine, murine.
The subject of data set [3] is BLMVEC monolayers. Put plainly: Transendothelial 125I-MPO permeability, Transwell filters. It is filed as cell-based, bovine. How it is done: FIG. 2A-FIG. 2C: Albumin increases the binding of ^125I-MPO to endothelial cell surface. The binding of ^125I-MPO to BLMVEC was measured as described in Example 1. Results are shown as mean SEM of three separate experiments made in a triplicate binding assay. *, indicates difference from control (p<0.05); **, (p<0.001) different from control (i.e., binding was determined in the presence of 5 mg/ml γ-globulin). […] FIG. 2B: Effects of albumin on time course transendothelial transport of MPO. BLMVEC grown on microporous Transwell filters were used to determine transendothelial transport of MPO as described in Example 1. […] The transendothelial ^125I-MPO clearance rate was calculated as described (24, 27). *, indicates difference from control or CD-treated group (p<0.001). […] Lung preparations were perfused at 37° C. with Krebs-albumin solutions at the indicated concentrations; MPO PS (μl/min/g wet lung) was determined by perfusing ^125I-MPO for 10 min, and removing vascular tracer with Krebs for 6 min and bound tracer with cold (12° C.) acetate buffer (pH 4.5) for 3 min. ^125I-MPO PS increased 2-fold upon increasing [BSA] from 0.05 to 0.4 g/100 ml. […]
Transendotlielial ^125I-MPO permeability: Transendothelial permeability of ^125I-MPO in BLMVEC monolayers was determined using Transwell filter units (24, 27). […]

In data set [4] the test system is BLMVEC. Description: MPO uptake and localization by confocal immunostaining. The class given is cell-based, bovine. To be noted: for MPO staining (localization): 30 min 37° C. How it is done: FIG. 3A-FIG. 3E: Albumin induces the endocytosis of MPO in endothelial cells. BLMVEC grown on glass coverslips were incubated with buffer C for 12 h. Cells were then incubated with buffer C containing 25 nM MPO alone or in combination with Alexa-594 BSA (50 μg/ml) and unlabeled BSA (1 mg/ml) for 30 min at 37° C. Cells were washed 3×, fixed with 4% PFA in HBSS for 30 min at 22° C., and blocked with 5% goat serum in HBBS containing 0.1% Triton X-100 (blocking buffer) for 30 min at 22° C. After washing, the cells were incubated with anti-MPO Ab diluted (1:1000) in blocking buffer at 4° C. overnight. After washing 2×, cells were incubated with Alexa-488 labeled (green) secondary Ab in blocking buffer for 60 min at 4° C. Confocal images were obtained as described in Methods. […] There was a marked co-localization of […] (green) and Alexa-594 BSA (red) in merged image (yellow; right). FIG. 3B: Albumin induces the co-localization of MPO with cholera toxin subunit B (CTB) in endothelial cells. BLMVEC were grown as described in FIG. 3A. Cells were incubated with Alexa 488-CTB; (20 ug/ml), MPO (25 nM), and BSA (1 mg/ml) in buffer C for 30 min at 37° C. After this, cells were washed, fixed, permeabilized, and stained with anti-MPO Ab and AlexaA594 labeled secondary antibody. Cells were visualized by confocal microscopy after mounting. Confocal images of CTB (green-left panel) and anti-MPO Ab staining (red-middle panel) in vesicles are shown. […] There was marked merging in vesicles in the YZ projection image (far left panel) and single frame (X-Y) or single line (Y-Z and X-Z) images (left panel) observed in the presence of albumin compared to the green CTB-positive/MPO negative vesicles observed in the absence albumin (right and far right panels). […]
Immunostaining: Cellular localization of MPO, albumin, CTB (a caveolae marker), and caveolin-1 was determined by confocal microscopy (Minshall et al., J. Cell Biol., 150:1057-1069 (2000); John et al., Am. J. Physiol. Lung Cell Mol. Physiol., 284:L187-L196 (2003)). […] MPO uptake in BLMVEC was determined in the presence or absence of albumin or CTB. […]

The subject of data set [5] is BLMVEC. Put plainly: 125I-MPO binding to endothelial cell surface. The class given is cell-based, bovine. To be noted: increasing BSA 1-50 mg/ml in binding buffer; 4° C., 1 h. As for the experimental part:
(§1) FIG. 2A-FIG. 2C: Albumin increases the binding of ^125I-MPO to endothelial cell surface. The binding of ^125I-MPO to BLMVEC was measured as described in Example 1. Results are shown as mean SEM of three separate experiments made in a triplicate binding assay. *, indicates difference from control (p<0.05); **, (p<0.001) different from control (i.e., binding was determined in the presence of 5 mg/ml γ-globulin). […] FIG. 2B: Effects of albumin on time course transendothelial transport of MPO. BLMVEC grown on microporous Transwell filters were used to determine transendothelial transport of MPO as described in Example 1. To study the methyl-B-cyclodextrin (CD) effect, luminal chamber was incubated with 5.0 mM CD for 20 min prior to measuring ^125I-MPO permeability. […] The transendothelial ^125I-MPO clearance rate was calculated as described (24, 27). *, indicates difference from control or CD-treated group (p<0.001). […] Lung preparations were perfused at 37° C. with Krebs-albumin solutions at the indicated concentrations; MPO PS (μl/min/g wet lung) was determined by perfusing ^125I-MPO for 10 min, and removing vascular tracer with Krebs for 6 min and bound tracer with cold (12° C.) acetate buffer (pH 4.5) for 3 min. ^125I-MPO PS increased 2-fold upon increasing [BSA] from 0.05 to 0.4 g/100 ml. […]

Data set [6] relates to lung microvessels. Description: Pulmonary vascular 125I-MPO permeability x surface area (PS), isolated-perfused lung. More on the design: species or system rat. How it is done: as §1

Entries after “also recorded” stand apart in the source; their conditions may differ.

For the molecule EARKIV, the “binding to HSA (in words)” value in data set [1] is reported as “no binding; also recorded: failed to bind”.

For ELKSLNPRWDGE, the “ability to bind albumin from a variety of sources” value in data set [2] was “able to bind to albumin from any of a variety of sources”.

As to “GLATELGSLNPGWDGEGLYQEAGGIVGAMV [MPO-MT-peptide, mutant of MPO-WT-peptide, K and R replaced with G]”, the “binding to HSA (in words)” value in data set [1] was “failed to bind”.

With “methyl-β-cyclodextrin [CD, reference compound]”, the “effect on transport of 125I-MPO in the presence of albumin” value in data set [3] (CD 5.0 mM for 20 min) is recorded as “prevented the transport”. For the same molecule, the “effect on albumin-induced MPO uptake” value in data set [4] (5.0 mM CD for 20 min at 37° C.) is “prevented the albumin-induced MPO uptake”.

B1: MPO: MPO purified from human PMNs (Calbiochem), 125I-labeled for binding and permeability (protein, listed as Homo sapiens)
chain: MGVPFFSSLRCMVDLGPCWAGGLTAEMKLLLALAGLLAILATPQPSEGAAPAVLGEVDTSLVLSSMEEAKQLVDKAYKERRESIKQRLRSGSASPMELLSYFKQPVAATRTAVRAADYLHVALDLLERKLRSLWRRPFNVTDVLTPAQLNVLSKSSGCAYQDVGVTCPEQDKYRTITGMCNNRRSPTLGASNRAFVRWLPAEYEDGFSLPYGWTPGVKRNGFPVALARAVSNEIVRFPTDQLTPDQERSLMFMQWGQLLDHDLDFTPEPAARASFVTGVNCETSCVQQPPCFPLKIPPNDPRIKNQADCIPFFRSCPACPGSNITIRNQINALTSFVDASMVYGSEEPLARNLRNMSNQLGLLAVNQRFQDNGRALLPFDNLHDDPCLLTNRSARIPCFLAGDTRSSEMPELTSMHTLLLREHNRLATELKSLNPRWDGERLYQEARKIVGAMVQIITYRDYLPLVLGPTAMRKYLPTYRSYNDSVDPRIANVFTNAFRYGHTLIQPFMFRLDNRYQPMEPNPRVPLSRVFFASWRVVLEGGIDPILRGLMATPAKLNRQNQIAVDEIRERLFEQVMRIGLDLPALNMQRSRDHGLPGYNAWRRFCGLPQPETVGQLGTVLRNLKLARKLMEQYGTPNNIDIWMGGVSEPLKRKGRVGPLLACIIGTQFRKLRDGDRFWWENEGVFSMQQRQALAQISLPRIICDNTGITTVSKNNIFMSNSYPRDFVNCSTLPALNLASWREAS
modifications: 125I label
Turning to B1, the “binding of 125I-MPO to the endothelial cell surface” value in data set [5] is reported as “increased the binding”. Moreover, the “increase of transendothelial 125I-MPO permeability” value in data set [3] (in the presence of albumin, compared to γ-globulin (5 mg/ml)) was “more than 2 fold”. In data set [6] (BSA 0.25 and 0.4 g/100 ml), the “MPO PS at higher BSA concentrations” value is “did not increase further”. The “increase in 125I-MPO PS” value in data set [6] (upon increasing [BSA] from 0.05 to 0.4 g/100 ml) was 2 fold. In addition, the “MPO staining (localization)” value in data set [4] (25 nM MPO plus 1 mg/ml BSA) is reported as “markedly co-localized with albumin-containing vesicles”; in data set [4] (25 nM MPO, absence of albumin), “observed only on the cell surface”.
